Source: PMC7688639, “Biased localization of actin binding proteins by actin filament conformation” (Nature Communications, 2020)
Positions count from the first letter of the chain named. In names and notes the source's numbering stands. Values belong to the binder of their own block, whether it stands above or below them.

Assays:
[1] = biological target: T1, actin filaments (F-actin) polymerised from rabbit muscle actin (rabbit, UniProt P68135 1-377); test: single-molecule TIRF binding kinetics (on-rate); tethered actin filaments; frequency of binding events for a range of concentrations of actin-binding domain, linear regression of frequency against concentration; details: both partners purified
[2] = biological target: T1, actin filaments (F-actin) polymerised …; test: single-molecule TIRF binding kinetics (dwell times); actin filaments tethered to a PEG/biotin-PEG coverslip by streptavidin and biotin-phalloidin; labelled binding domain in solution at ~0.05–0.1 nM; 25 mM imidazole, 25 mM KCl, 4 mM MgCl2, 1 mM EGTA, 1 mM DTT, pH 7.4, 10 µg/mL beta casein; double exponential fit of the CDF, bleaching corrected; details: both partners purified

kon [1]: 2.2e+06 ± 300000 M⁻¹ s⁻¹ | average dwell time (τav) [2]: ~1.1 s | ratio of the two dwell-time scales (τ2/τ1) [2]: 18.3
B1: actin-binding domain of human utrophin (CH1–CH2, AA 1–261) (domain or fragment)
chain: MAKYGEHEASPDNGQNEFSDIIKSRSDEHNDVQKKTFTKWINARFSKSGKPPINDMFTDLKDGRKLLDLLEGLTGTSLPKERGSTRVHALNNVNRVLQVLHQNNVELVNIGGTDIVDGNHKLTLGLLWSIILHWQVKDVMKDVMSDLQQTNSEKILLSWVRQTTRPYSQVNVLNFTTSWTDGLAFNAVLHRHKPDLFSWDKVVKMSPIERLEHAFSKAQTYLGIEKLLDPEDVAVQLPDKKSIIMYLTSLFEVLPQQVTIDGGSGKCKSA
modifications: maleimide dye on the C-terminal KCK linker (Alexa-488 C5, Alexa-555 C2 or Alexa-647 C2 maleimide; Alexa-555 named as the dye of the dwell-time experiments)
notes: KCK linker on the C terminus for maleimide labelling; both cleaved by TEV; also called utrnWT; utrn ABD; source: E. coli BL21 (DE3) pLysS, purified (IMAC, TEV cleavage, size exclusion chromatography); not shown: His10, N-terminal, cleaved; z-tag, N-terminal, cleaved

kon [1]: 5e+06 ± 2e+06 M⁻¹ s⁻¹ | average dwell time (τav) [2]: ~4.6 s
B2: utrophin actin-binding domain Q33A T36A G125A L132A (domain or fragment)
chain: B1 chain with Q33A, T36A, G125A, L132A
modifications: maleimide dye on the C-terminal KCK linker (Alexa-488 C5, Alexa-555 C2 or Alexa-647 C2 maleimide; Alexa-555 named as the dye of the dwell-time experiments)
notes: KCK linker on the C terminus for maleimide labelling; also called utrnSF; source: E. coli BL21 (DE3) pLysS, purified (IMAC, TEV cleavage, size exclusion chromatography); not shown: His10, N-terminal, cleaved; z-tag, N-terminal, cleaved

kon [1]: 2.4e+06 ± 300000 M⁻¹ s⁻¹ | average dwell time (τav) [2]: ~1.3 s | ratio of the two dwell-time scales (τ2/τ1) [2]: 9.6
B3: utrophin actin-binding domain Q33A T36A K121A (domain or fragment)
chain: B1 chain with Q33A, T36A, K121A
modifications: maleimide dye on the C-terminal KCK linker (Alexa-488 C5, Alexa-555 C2 or Alexa-647 C2 maleimide; Alexa-555 named as the dye of the dwell-time experiments)
notes: KCK linker on the C terminus for maleimide labelling; also called utrnLAM; source: E. coli BL21 (DE3) pLysS, purified (IMAC, TEV cleavage, size exclusion chromatography); not shown: His10, N-terminal, cleaved; z-tag, N-terminal, cleaved
